# Tests used:
# [1] = target: human CD98hc with incomplete glycosylation (cells treated with tunicamycin, thapsigargin or bortezomib) (human) (UniProt P08195); experiment: FACS on tunicamycin-treated U937 cells, MEM-108 at 2.5 µg/ml, PE anti-mouse IgG
# [2] = target: human CD98hc as expressed on normal blood cells, HUVEC cells and untreated U937 / THP-1 cells (human CD98hc having an N-glycan) (human) (UniProt P08195); experiment: FACS on untreated U937 cells, MEM-108 at 2.5 µg/ml, PE anti-mouse IgG
# [3] = target: human CD98hc with incomplete glycosylation (cells treated with tunicamycin, thapsigargin or bortezomib) (human) (UniProt P08195); experiment: FACS on tunicamycin-treated THP-1 cells, MEM-108 at 2.5 µg/ml, PE anti-mouse IgG
# [4] = target: human CD98hc as expressed on normal blood cells, HUVEC cells and untreated U937 / THP-1 cells (human CD98hc having an N-glycan) (human) (UniProt P08195); experiment: FACS on untreated THP-1 cells, MEM-108 at 2.5 µg/ml, PE anti-mouse IgG
substance,measurement,setting,value
"MEM-108 antibody (anti-human CD98 antibody, Biolegend)",MFI (corrected value obtained by dividing with an isotype control) (MFI / MFI of isotype control),[1],8.3
same,MFI (corrected value obtained by dividing with an isotype control) (MFI / MFI of isotype control),[2],11.8
same,MFI (corrected value obtained by dividing with an isotype control) (MFI / MFI of isotype control),[3],29.1
same,MFI (corrected value obtained by dividing with an isotype control) (MFI / MFI of isotype control),[4],29.4
